T1: GFP-tagged Kif4A (human), O95239
T1 chain: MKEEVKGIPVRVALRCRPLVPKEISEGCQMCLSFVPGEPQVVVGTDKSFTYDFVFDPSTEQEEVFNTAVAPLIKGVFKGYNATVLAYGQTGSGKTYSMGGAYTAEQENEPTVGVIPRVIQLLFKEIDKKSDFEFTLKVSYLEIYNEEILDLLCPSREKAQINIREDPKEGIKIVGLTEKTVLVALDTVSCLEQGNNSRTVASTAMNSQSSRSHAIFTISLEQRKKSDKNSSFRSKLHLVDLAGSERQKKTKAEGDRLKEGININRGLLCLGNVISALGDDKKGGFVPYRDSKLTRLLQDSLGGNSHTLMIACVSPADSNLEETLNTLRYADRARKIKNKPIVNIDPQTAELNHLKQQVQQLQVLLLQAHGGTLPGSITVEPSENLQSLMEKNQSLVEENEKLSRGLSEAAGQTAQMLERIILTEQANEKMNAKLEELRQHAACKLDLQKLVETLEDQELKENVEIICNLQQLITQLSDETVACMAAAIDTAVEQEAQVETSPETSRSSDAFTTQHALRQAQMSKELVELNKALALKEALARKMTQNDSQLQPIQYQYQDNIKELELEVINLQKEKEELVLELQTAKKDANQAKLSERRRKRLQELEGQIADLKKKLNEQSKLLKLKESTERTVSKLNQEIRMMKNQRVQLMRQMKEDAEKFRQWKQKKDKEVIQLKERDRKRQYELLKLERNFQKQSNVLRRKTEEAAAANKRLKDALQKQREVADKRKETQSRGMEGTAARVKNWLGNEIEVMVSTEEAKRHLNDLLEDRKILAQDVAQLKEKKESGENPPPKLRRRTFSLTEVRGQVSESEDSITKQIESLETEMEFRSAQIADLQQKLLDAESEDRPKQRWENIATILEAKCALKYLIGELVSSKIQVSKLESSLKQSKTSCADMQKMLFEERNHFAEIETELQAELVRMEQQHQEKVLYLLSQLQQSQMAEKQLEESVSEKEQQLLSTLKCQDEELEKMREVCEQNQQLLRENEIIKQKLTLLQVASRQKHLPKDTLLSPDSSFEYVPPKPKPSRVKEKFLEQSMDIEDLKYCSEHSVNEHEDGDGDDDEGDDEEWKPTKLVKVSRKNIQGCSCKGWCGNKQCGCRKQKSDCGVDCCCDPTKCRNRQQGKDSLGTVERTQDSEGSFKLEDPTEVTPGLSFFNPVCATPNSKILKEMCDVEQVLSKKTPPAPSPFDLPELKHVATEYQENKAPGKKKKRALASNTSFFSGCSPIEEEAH

T2: Kif4A-mCherry (human), O95239
T2 chain: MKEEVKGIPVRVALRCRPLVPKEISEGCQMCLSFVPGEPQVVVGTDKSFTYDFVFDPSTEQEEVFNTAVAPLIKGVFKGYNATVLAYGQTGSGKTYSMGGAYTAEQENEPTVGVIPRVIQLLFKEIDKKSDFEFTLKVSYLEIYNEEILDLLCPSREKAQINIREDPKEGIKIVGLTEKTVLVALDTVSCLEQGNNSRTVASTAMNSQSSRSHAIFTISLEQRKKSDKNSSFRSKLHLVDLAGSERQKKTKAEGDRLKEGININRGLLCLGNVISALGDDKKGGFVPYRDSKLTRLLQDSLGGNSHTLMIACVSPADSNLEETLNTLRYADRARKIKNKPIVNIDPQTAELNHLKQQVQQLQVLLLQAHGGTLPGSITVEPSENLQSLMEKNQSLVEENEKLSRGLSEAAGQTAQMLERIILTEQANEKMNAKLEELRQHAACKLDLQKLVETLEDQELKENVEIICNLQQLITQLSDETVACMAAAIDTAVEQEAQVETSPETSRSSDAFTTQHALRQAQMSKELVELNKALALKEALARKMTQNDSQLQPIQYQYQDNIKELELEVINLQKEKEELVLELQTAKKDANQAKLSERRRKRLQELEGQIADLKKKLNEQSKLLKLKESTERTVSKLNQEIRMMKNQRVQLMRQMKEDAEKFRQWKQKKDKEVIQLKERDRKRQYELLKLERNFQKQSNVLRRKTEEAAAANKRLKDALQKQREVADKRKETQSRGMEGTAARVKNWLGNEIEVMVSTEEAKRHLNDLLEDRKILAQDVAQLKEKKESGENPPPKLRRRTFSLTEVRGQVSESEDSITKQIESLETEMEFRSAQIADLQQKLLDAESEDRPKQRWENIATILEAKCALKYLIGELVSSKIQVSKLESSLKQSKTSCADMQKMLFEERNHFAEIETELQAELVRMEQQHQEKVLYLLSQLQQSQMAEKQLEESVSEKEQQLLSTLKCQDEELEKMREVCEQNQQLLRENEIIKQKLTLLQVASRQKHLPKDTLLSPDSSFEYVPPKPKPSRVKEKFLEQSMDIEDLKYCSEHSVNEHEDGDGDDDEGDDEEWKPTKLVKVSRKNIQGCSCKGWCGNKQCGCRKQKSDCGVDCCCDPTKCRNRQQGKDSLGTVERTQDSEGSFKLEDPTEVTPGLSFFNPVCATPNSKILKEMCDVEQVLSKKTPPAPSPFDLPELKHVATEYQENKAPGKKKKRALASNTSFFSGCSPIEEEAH


Tests used:
[1] = biological target: T1, GFP-tagged Kif4A (human), O95239; assay: single-molecule photobleaching and fluorescence intensity analysis; conditions: remark: other sources report otherwise
[2] = biological target: T2, Kif4A-mCherry (human), O95239; assay: as above; conditions: remark: other sources report otherwise

stoichiometry N [1] | stoichiometry N [2] | Binder
2 | – | GFP-tagged Kif4A, O95239 1-1232 (natural protein) MKEEVKGIPVRVALRCRPLVPKEISEGCQMCLSFVPGEPQVVVGTDKSFTYDFVFDPSTEQEEVFNTAVAPLIKGVFKGYNATVLAYGQTGSGKTYSMGGAYTAEQENEPTVGVIPRVIQLLFKEIDKKSDFEFTLKVSYLEIYNEEILDLLCPSREKAQINIREDPKEGIKIVGLTEKTVLVALDTVSCLEQGNNSRTVASTAMNSQSSRSHAIFTISLEQRKKSDKNSSFRSKLHLVDLAGSERQKKTKAEGDRLKEGININRGLLCLGNVISALGDDKKGGFVPYRDSKLTRLLQDSLGGNSHTLMIACVSPADSNLEETLNTLRYADRARKIKNKPIVNIDPQTAELNHLKQQVQQLQVLLLQAHGGTLPGSITVEPSENLQSLMEKNQSLVEENEKLSRGLSEAAGQTAQMLERIILTEQANEKMNAKLEELRQHAACKLDLQKLVETLEDQELKENVEIICNLQQLITQLSDETVACMAAAIDTAVEQEAQVETSPETSRSSDAFTTQHALRQAQMSKELVELNKALALKEALARKMTQNDSQLQPIQYQYQDNIKELELEVINLQKEKEELVLELQTAKKDANQAKLSERRRKRLQELEGQIADLKKKLNEQSKLLKLKESTERTVSKLNQEIRMMKNQRVQLMRQMKEDAEKFRQWKQKKDKEVIQLKERDRKRQYELLKLERNFQKQSNVLRRKTEEAAAANKRLKDALQKQREVADKRKETQSRGMEGTAARVKNWLGNEIEVMVSTEEAKRHLNDLLEDRKILAQDVAQLKEKKESGENPPPKLRRRTFSLTEVRGQVSESEDSITKQIESLETEMEFRSAQIADLQQKLLDAESEDRPKQRWENIATILEAKCALKYLIGELVSSKIQVSKLESSLKQSKTSCADMQKMLFEERNHFAEIETELQAELVRMEQQHQEKVLYLLSQLQQSQMAEKQLEESVSEKEQQLLSTLKCQDEELEKMREVCEQNQQLLRENEIIKQKLTLLQVASRQKHLPKDTLLSPDSSFEYVPPKPKPSRVKEKFLEQSMDIEDLKYCSEHSVNEHEDGDGDDDEGDDEEWKPTKLVKVSRKNIQGCSCKGWCGNKQCGCRKQKSDCGVDCCCDPTKCRNRQQGKDSLGTVERTQDSEGSFKLEDPTEVTPGLSFFNPVCATPNSKILKEMCDVEQVLSKKTPPAPSPFDLPELKHVATEYQENKAPGKKKKRALASNTSFFSGCSPIEEEAH
– | 2 | Kif4A-mCherry, O95239 1-1232 (natural protein) MKEEVKGIPVRVALRCRPLVPKEISEGCQMCLSFVPGEPQVVVGTDKSFTYDFVFDPSTEQEEVFNTAVAPLIKGVFKGYNATVLAYGQTGSGKTYSMGGAYTAEQENEPTVGVIPRVIQLLFKEIDKKSDFEFTLKVSYLEIYNEEILDLLCPSREKAQINIREDPKEGIKIVGLTEKTVLVALDTVSCLEQGNNSRTVASTAMNSQSSRSHAIFTISLEQRKKSDKNSSFRSKLHLVDLAGSERQKKTKAEGDRLKEGININRGLLCLGNVISALGDDKKGGFVPYRDSKLTRLLQDSLGGNSHTLMIACVSPADSNLEETLNTLRYADRARKIKNKPIVNIDPQTAELNHLKQQVQQLQVLLLQAHGGTLPGSITVEPSENLQSLMEKNQSLVEENEKLSRGLSEAAGQTAQMLERIILTEQANEKMNAKLEELRQHAACKLDLQKLVETLEDQELKENVEIICNLQQLITQLSDETVACMAAAIDTAVEQEAQVETSPETSRSSDAFTTQHALRQAQMSKELVELNKALALKEALARKMTQNDSQLQPIQYQYQDNIKELELEVINLQKEKEELVLELQTAKKDANQAKLSERRRKRLQELEGQIADLKKKLNEQSKLLKLKESTERTVSKLNQEIRMMKNQRVQLMRQMKEDAEKFRQWKQKKDKEVIQLKERDRKRQYELLKLERNFQKQSNVLRRKTEEAAAANKRLKDALQKQREVADKRKETQSRGMEGTAARVKNWLGNEIEVMVSTEEAKRHLNDLLEDRKILAQDVAQLKEKKESGENPPPKLRRRTFSLTEVRGQVSESEDSITKQIESLETEMEFRSAQIADLQQKLLDAESEDRPKQRWENIATILEAKCALKYLIGELVSSKIQVSKLESSLKQSKTSCADMQKMLFEERNHFAEIETELQAELVRMEQQHQEKVLYLLSQLQQSQMAEKQLEESVSEKEQQLLSTLKCQDEELEKMREVCEQNQQLLRENEIIKQKLTLLQVASRQKHLPKDTLLSPDSSFEYVPPKPKPSRVKEKFLEQSMDIEDLKYCSEHSVNEHEDGDGDDDEGDDEEWKPTKLVKVSRKNIQGCSCKGWCGNKQCGCRKQKSDCGVDCCCDPTKCRNRQQGKDSLGTVERTQDSEGSFKLEDPTEVTPGLSFFNPVCATPNSKILKEMCDVEQVLSKKTPPAPSPFDLPELKHVATEYQENKAPGKKKKRALASNTSFFSGCSPIEEEAH

Source: article PMC9282251
